# PMC9820267
# Target: PSD-95 (DLG4) (UniProt Q62108)
# Test: GST pull-down from cotransfected COS7 lysate
# Conditions: reference: wild type (treatment condition of comparison not stated); sites T585,T612
substance,measurement,value
"PSD-93 (DLG2) PDZ3-SH3, 390-620 (from UniProt Q91XM9) T585A/T612A",binding against the reference,weaker
